Data reported in PMC12745498, “Streptococcus pneumoniae HtrA is a dynamic and monomeric virulence factor capable of forming larger oligomeric complexes” (Protein Science : A Publication of the Protein Society, 2025).
Ends that are not written are not given here.

T1: S. pneumoniae HtrA protease domain (PD, residues 59-285) (Streptococcus pneumoniae, UniProt A0A0H2ZQD7 59-285)
T1 construct: HtrA serine protease of Streptococcus pneumoniae, protease domain alone, residues 59-285; 15N-labeled where it is the observed partner of an NMR titration; also called HtrA PD; PD WT; source: E. coli BL21(DE3), purified (Ni column, preparative sizing column)
T1 sequence: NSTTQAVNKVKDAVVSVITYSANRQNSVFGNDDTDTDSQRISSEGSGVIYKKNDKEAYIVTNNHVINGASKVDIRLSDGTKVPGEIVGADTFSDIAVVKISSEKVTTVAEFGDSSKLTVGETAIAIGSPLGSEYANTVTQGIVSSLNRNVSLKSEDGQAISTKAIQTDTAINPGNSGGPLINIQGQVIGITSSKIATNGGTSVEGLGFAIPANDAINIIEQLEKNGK

B1: S. pneumoniae HtrA PDZ domain (residues 285-393) (domain or fragment, Streptococcus pneumoniae, UniProt A0A0H2ZQD7 285-393, looked up)
chain: KVTRPALGIQMVNLSNVSTSDIRRLNIPSNVTSGVIVRSVQSNMPANGHLEKYDVITKVDDKEIASSTDLQSALYNHSIGDTIKITYYRNGKEETTSIKLNKSSGDLES
notes: HtrA serine protease of Streptococcus pneumoniae, PDZ domain alone, residues 285-393 (the methods print 285-493); cloned downstream of human SUMO1 to give the PDZ with no overhang; source: E. coli BL21(DE3), purified (Ni column, ULP1 cleavage, Ni column, preparative sizing column); not shown: 6xHis, N-terminal, cleaved; hSUMO1, N-terminal, cleaved
B2: S. pneumoniae HtrA S234A full ectodomain (residues 59-393) (enzyme)
chain: NSTTQAVNKVKDAVVSVITYSANRQNSVFGNDDTDTDSQRISSEGSGVIYKKNDKEAYIVTNNHVINGASKVDIRLSDGTKVPGEIVGADTFSDIAVVKISSEKVTTVAEFGDSSKLTVGETAIAIGSPLGSEYANTVTQGIVSSLNRNVSLKSEDGQAISTKAIQTDTAINPGNAGGPLINIQGQVIGITSSKIATNGGTSVEGLGFAIPANDAINIIEQLEKNGKVTRPALGIQMVNLSNVSTSDIRRLNIPSNVTSGVIVRSVQSNMPANGHLEKYDVITKVDDKEIASSTDLQSALYNHSIGDTIKITYYRNGKEETTSIKLNKSSGDLES
notes: HtrA serine protease of Streptococcus pneumoniae, full ectodomain, residues 59-393, catalytic serine changed to alanine; the mutant's own cloning is not described; also called full HtrA S234A ectodomain; catalytic mutant; source: E. coli, purified (monomer and hexamer separated by size-exclusion chromatography)
B3: β-casein residues 21-70 (domain or fragment, bovine, UniProt P02666 21-70, looked up)
chain: LNVPGEIVESLSSSEESITRINKKIEKFQSEEQQQTEDELQDKIHPFAQT
modifications: ends and bridges not checked
notes: bovine β-casein, residues 21-70; also called N-terminal segment (21-70); source: recombinantly produced in-house with the hSUMO1 system (as for the HtrA PDZ)

How the values were obtained:
[1] = target: T1, S. pneumoniae HtrA protease domain (PD, …); test: NMR titration; 500 μM 15N-labeled PD titrated with unlabeled PDZ (0.25-4 mM); 15N-HSQC at 900 MHz, 35°C; 50 mM sodium phosphate pH 6, 50 mM NaCl; global fit of CSPs, single-site model; conditions: both partners purified
[2] = target: T1, S. pneumoniae HtrA protease domain (PD, …); test: NMR titration; 500 μM 15N-labeled PDZ titrated with unlabeled PD (0.5-4 mM); 15N-HSQC at 900 MHz, 35°C; 50 mM sodium phosphate pH 6, 50 mM NaCl; global fit of CSPs, single-site model; conditions: both partners purified
[3] = target: the molecule itself; test: SEC; size-exclusion chromatography of HtrA WT, HtrA S234A, β-casein and a mixture of HtrA S234A with excess β-casein
[4] = target: B1; test: NMR titration; 250 μM 15N-labeled HtrA PDZ titrated with recombinant β-casein fragments (final 400 μM); 15N-HSQC, global fit of CSPs; conditions: both partners purified

For B1, the Kd [1] was 480 ± 43 µM and the Kd [2] was 1000 ± 500 µM.

For B2, the “stoichiometry N” value [3] was 6.

For B3, the Kd [4] was 215 ± 35 µM.
